Where no end group is shown, it is not given here.
Assays:
[1] = biological target: T1, BSA (negative control coating) (bovine, UniProt P02769 25-607); test: ELISA; Ab 0.03125 ug/mL; repII
T1 construct: also called Negative control BSA
Description: (§1) In brief, plates with each non-conjugated peptide (50 μg/mL) or BSA-conjugated peptide (5 μg/mL) were coated in 0.58M carbonate-bicarbonate buffer pH9.5, 100 μL/well, at 4° C. […] After washing, wells were incubated with the 3, 3′,5,5′-Tetramethylbenzidine (TMB) HRP substrate and reactions were stopped with 2M HCl and OD450 was recorded.

[2] = biological target: T2, Peptide 3, non-conjugated (SSMEDYVNFN-C) (human); test: ELISA; Ab 0.03125 ug/mL; repII
T2 construct: With the extra C-terminal Cys
T2 peptide: SSMEDYVNFNC
Description: as §1

[3] = biological target: T3, Peptide 1, non-conjugated (MADDYGSEST-C) (human); test: ELISA; Ab 0.03125 ug/mL; repII
T3 construct: With the extra C-terminal Cys
T3 peptide: MADDYGSESTC
Description: as §1

[4] = biological target: T4, Peptide 1-BSA (MADDYGSEST-C conjugated to BSA) (human); test: ELISA; Ab 0.03125 ug/mL; repII
T4 peptide: MADDYGSESTC(BSA)
Description: as §1

[5] = biological target: T5, Peptide 3-BSA (SSMEDYVNFN-C conjugated to BSA) (human); test: ELISA; Ab 0.03125 ug/mL; repII
T5 peptide: SSMEDYVNFNC(BSA)
Description: as §1

[6] = biological target: T6, Peptide 2-BSA (GSESTSSMED-C conjugated to BSA) (human); test: ELISA; Ab 0.03125 ug/mL; repII
T6 peptide: GSESTSSMEDC(BSA)
Description: as §1

[7] = biological target: T7, Peptide 2, non-conjugated (GSESTSSMED-C) (human); test: ELISA; Ab 0.03125 ug/mL; repII
T7 construct: With the extra C-terminal Cys
T7 peptide: GSESTSSMEDC
Description: as §1

[8] = biological target: T8, antigen peptide-BSA (immunisation peptide #1 MADDYGSESTSSMEDYVNFNF-C conjugated to BSA) (human, extra C-terminal Cys conjugated to BSA); test: ELISA; Ab 0.03125 ug/mL; repII
T8 construct: also called Positive control antigen peptide-BSA; MADDY peptide
T8 peptide: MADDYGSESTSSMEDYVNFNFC
Description: as §1

[9] = biological target: T9, Peptide 4-BSA (SMEDYVNFNF-C conjugated to BSA) (human); test: ELISA; Ab 0.03125 ug/mL; repII
T9 peptide: SMEDYVNFNFC(BSA)
Description: as §1

[10] = biological target: T10, Peptide 4, non-conjugated (SMEDYVNFNF-C) (human); test: ELISA; Ab 0.03125 ug/mL; repII
T10 construct: With the extra C-terminal Cys
T10 peptide: SMEDYVNFNFC
Description: as §1

[11] = biological target: T1, BSA (negative control coating); test: ELISA; Ab 0.125 ug/mL; repII
Description: as §1

[12] = biological target: T1, BSA (negative control coating); test: ELISA; Ab 0.03125 ug/mL; repI
Description: as §1

[13] = biological target: T2, Peptide 3, non-conjugated (SSMEDYVNFN-C); test: ELISA; Ab 0.03125 ug/mL; repI
Description: as §1

[14] = biological target: T3, Peptide 1, non-conjugated (MADDYGSEST-C); test: ELISA; Ab 0.03125 ug/mL; repI
Description: as §1

[15] = biological target: T4, Peptide 1-BSA (MADDYGSEST-C conjugated …); test: ELISA; Ab 0.03125 ug/mL; repI
Description: as §1

[16] = biological target: T5, Peptide 3-BSA (SSMEDYVNFN-C conjugated …); test: ELISA; Ab 0.03125 ug/mL; repI
Description: as §1

[17] = biological target: T6, Peptide 2-BSA (GSESTSSMED-C conjugated …); test: ELISA; Ab 0.03125 ug/mL; repI
Description: as §1

[18] = biological target: T7, Peptide 2, non-conjugated (GSESTSSMED-C); test: ELISA; Ab 0.03125 ug/mL; repI
Description: as §1

[19] = biological target: T8, antigen peptide-BSA (immunisation …); test: ELISA; Ab 0.03125 ug/mL; repI
Description: as §1

[20] = biological target: T9, Peptide 4-BSA (SMEDYVNFNF-C conjugated …); test: ELISA; Ab 0.03125 ug/mL; repI
Description: as §1

[21] = biological target: T10, Peptide 4, non-conjugated (SMEDYVNFNF-C); test: ELISA; Ab 0.03125 ug/mL; repI
Description: as §1

[22] = biological target: T1, BSA (negative control coating); test: ELISA; Ab 1 ug/mL; repII
Description: as §1

[23] = biological target: T2, Peptide 3, non-conjugated (SSMEDYVNFN-C); test: ELISA; Ab 1 ug/mL; repII
Description: as §1

[24] = biological target: T3, Peptide 1, non-conjugated (MADDYGSEST-C); test: ELISA; Ab 1 ug/mL; repII
Description: as §1

[25] = biological target: T4, Peptide 1-BSA (MADDYGSEST-C conjugated …); test: ELISA; Ab 1 ug/mL; repII
Description: as §1

[26] = biological target: T6, Peptide 2-BSA (GSESTSSMED-C conjugated …); test: ELISA; Ab 1 ug/mL; repII
Description: as §1

[27] = biological target: T7, Peptide 2, non-conjugated (GSESTSSMED-C); test: ELISA; Ab 1 ug/mL; repII
Description: as §1

[28] = biological target: T8, antigen peptide-BSA (immunisation …); test: ELISA; Ab 1 ug/mL; repII
Description: as §1

[29] = biological target: T9, Peptide 4-BSA (SMEDYVNFNF-C conjugated …); test: ELISA; Ab 1 ug/mL; repII
Description: as §1

[30] = biological target: T10, Peptide 4, non-conjugated (SMEDYVNFNF-C); test: ELISA; Ab 1 ug/mL; repII
Description: as §1

T1 sequence (P02769 25-607 limits assumed): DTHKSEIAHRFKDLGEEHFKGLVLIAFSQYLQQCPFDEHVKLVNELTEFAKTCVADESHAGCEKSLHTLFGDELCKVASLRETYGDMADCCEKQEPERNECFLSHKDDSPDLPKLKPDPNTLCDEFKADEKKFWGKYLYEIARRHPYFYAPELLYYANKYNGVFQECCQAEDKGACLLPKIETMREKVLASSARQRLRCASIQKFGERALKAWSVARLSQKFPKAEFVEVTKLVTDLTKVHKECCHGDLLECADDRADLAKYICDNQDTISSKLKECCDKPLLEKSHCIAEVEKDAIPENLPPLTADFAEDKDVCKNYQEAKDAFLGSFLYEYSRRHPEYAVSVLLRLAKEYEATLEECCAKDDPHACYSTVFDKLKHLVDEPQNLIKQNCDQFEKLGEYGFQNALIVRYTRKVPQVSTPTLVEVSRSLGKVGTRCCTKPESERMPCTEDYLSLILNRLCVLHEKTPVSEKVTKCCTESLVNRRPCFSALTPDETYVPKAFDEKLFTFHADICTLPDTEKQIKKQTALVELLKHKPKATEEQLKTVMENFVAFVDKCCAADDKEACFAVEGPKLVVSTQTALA

B1: anti-CCR9 antibody clone 115 (murine, from hybridoma #115) (antibody, V domains shown)
VH: QVQLKQSGPELVKPGTSVRVSCTASGYSFTDYIIYWVKQSHGRSLEWIGYIDPNNYNTRYSQKFKGKATLTVDKSSTSAFMHLNSLTSDDSAVYYCARDVYWGQGTTLTVSS
VL: DVVMTQTPLSLTVSLGDQASISCRSSQSLVHSNGKTYLQWYLQKPGQSPKLLIYKVSNRFSGVPDRFSGSGSGTDFTLKISRVEAEDLGVYFCAQSTHVWTFGGGTKLEIKR
notes: Mouse IgG1
Work on B1 yielded an OD450 [1] of 0.01 OD, an OD450 [2] of 1.62 OD and an OD450 [3] of 0.01 OD. For the same binder, the OD450 [4] was 0.01 OD, the OD450 [5] was 1.57 OD and the OD450 [6] was 0.01 OD. The OD450 [7] was 0.01 OD, the OD450 [8] was 1.48 OD and the OD450 [9] was 1.53 OD. The OD450 [10] was 0.76 OD, the OD450 [11] was 0.01 OD and the OD450 [12] was 0.01 OD. The OD450 [13] was 1.65 OD, the OD450 [14] was 0.01 OD and the OD450 [15] was 0.01 OD. The OD450 [16] was 1.66 OD, the OD450 [17] was 0.01 OD and the OD450 [18] was 0.01 OD. It also gave an OD450 [19] of 1.28 OD, an OD450 [20] of 1.44 OD and an OD450 [21] of 0.67 OD. It also gave an OD450 [22] of 0.02 OD, an OD450 [23] of 2.1 OD and an OD450 [24] of 0.02 OD. For the same binder, the OD450 [25] was 0.03 OD, the OD450 [26] was 0.03 OD and the OD450 [27] was 0.02 OD. It also gave an OD450 [28] of 2.68 OD, an OD450 [29] of 2.75 OD and an OD450 [30] of 2.46 OD.
